These results are taken from patent publication US20250382390A1 (Chugai, published 2025).

For experiment [1], the target named is activated blood coagulation factor IX (FIXa) (UniProt P00740 47-461, limits assumed). In words: cell-based or functional assay.
Experiment [2] addresses blood coagulation factor X (FX) (UniProt P00742 41-488, limits assumed). Briefly: cell-based or functional assay.

Sequence of activated blood coagulation factor IX (FIXa) (P00740 47-461 limits assumed): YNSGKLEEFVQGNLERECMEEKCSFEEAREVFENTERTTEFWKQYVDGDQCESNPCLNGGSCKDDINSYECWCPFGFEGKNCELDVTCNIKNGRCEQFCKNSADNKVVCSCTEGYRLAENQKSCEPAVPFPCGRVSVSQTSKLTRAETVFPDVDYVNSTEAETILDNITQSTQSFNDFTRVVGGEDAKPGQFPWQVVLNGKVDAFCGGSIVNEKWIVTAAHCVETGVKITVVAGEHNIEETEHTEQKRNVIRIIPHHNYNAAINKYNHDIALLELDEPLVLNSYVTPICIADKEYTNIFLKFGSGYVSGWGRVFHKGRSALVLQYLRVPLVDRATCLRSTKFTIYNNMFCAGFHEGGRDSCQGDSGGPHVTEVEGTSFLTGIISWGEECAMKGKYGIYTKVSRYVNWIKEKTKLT
Sequence of blood coagulation factor X (FX) (P00742 41-488 limits assumed): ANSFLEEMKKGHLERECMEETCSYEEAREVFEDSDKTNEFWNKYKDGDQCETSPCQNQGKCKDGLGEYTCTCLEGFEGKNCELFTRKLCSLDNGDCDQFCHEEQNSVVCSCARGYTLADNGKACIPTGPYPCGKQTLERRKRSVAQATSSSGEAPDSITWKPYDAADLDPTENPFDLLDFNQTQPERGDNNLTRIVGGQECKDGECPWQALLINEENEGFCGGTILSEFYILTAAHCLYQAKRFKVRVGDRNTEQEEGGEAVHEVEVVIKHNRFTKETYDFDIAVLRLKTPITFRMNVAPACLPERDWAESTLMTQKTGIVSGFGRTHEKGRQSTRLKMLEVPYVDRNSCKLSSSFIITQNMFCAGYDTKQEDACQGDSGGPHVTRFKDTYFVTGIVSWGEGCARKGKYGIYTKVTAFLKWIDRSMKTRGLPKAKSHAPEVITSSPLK

B1: Q-CDR-Clipped Variants (variants of Emicizumab) (bispecific antibody, human IgG4 S228P, kappa)
heavy 1: QVQLVESGGGLVQPGGSLRLSCAASGFTFSYYDIQWVRQAPGKGLEWVSSISPSGQSTYYRREVKGRFTISRDNSKNTLYLQMNSLRAEDTAVYYCARRTGREYGGGWYFDYWGQGTLVTVSSASTKGPSVFPLAPCSRSTSESTAALGCLVKDYFPEPVTVSWNSGALTSGVHTFPAVLQSSGLYSLSSVVTVPSSSLGTQTYTCNVDHKPSNTKVDKRVESKYGPPCPPCPAPEFLGGPSVFLFPPKPKDTLMISRTPEVTCVVVDVSQEDPEVQFNWYVDGVEVHNAKTKPREEQYNSTYRVVSVLTVLHQDWLNGKEYKCKVSNKGLPSSIEKTISKAKGQPREPQVYTLPPSQKEMTKNQVSLTCLVKGFYPSDIAVEWESNGQPENNYKTTPPVLDSDGSFFLYSKLTVDKSRWQEGNVFSCSVMHEALHNRYTQKSLSLSP
heavy 2: QVQLVQSGSELKKPGASVKVSCKASGYTFTDNNMDWVRQAPGQGLEWMGDINTRSGGSIYNEEFQDRVIMTVDKSTDTAYMELSSLRSEDTATYHCARRKSYGYYLDEWGEGTLVTVSSASTKGPSVFPLAPCSRSTSESTAALGCLVKDYFPEPVTVSWNSGALTSGVHTFPAVLQSSGLYSLSSVVTVPSSSLGTQTYTCNVDHKPSNTKVDKRVESKYGPPCPPCPAPEFLGGPSVFLFPPKPKDTLMISRTPEVTCVVVDVSQEDPEVQFNWYVDGVEVHNAKTKPREEQYNSTYRVVSVLTVLHQDWLNGKEYKCKVSNKGLPSSIEKTISKAKGQPREPQVYTLPPSQEEMTKNQVSLTCLVKGFYPSDIAVEWESNGQPENNYKTTPPVLDSDGSFFLYSKLTVDKSRWQEGNVFSCSVMHEALHNHYTQESLSLSP
light: DIQMTQSPSSLSASVGDRVTITCKASRNIERQLAWYQQKPGQAPELLIYQASRKESGVPDRFSGSRYGTDFTLTISSLQPEDIATYYCQQYSDPPLTFGGGTKVEIKRTVAAPSVFIFPPSDEQLKSGTASVVCLLNNFYPREAKVQWKVDNALQSGNSQESVTEQDSKDSTYSLSSTLTLSKADYEKHKVYACEVTHQGLSSPVTKSFNRGEC
modifications: Q chain: R at the 61st position from the N terminus (Kabat 60), or YYR at the 59th to 61st positions (Kabat 58 to 60), deleted and the chain cleaved at the deletion site; the N-terminal and C-terminal fragments are joined via a disulfide bond
As for B1, the “biological activity relative to the Emicizumab standard solution (chromogenic assay: FXa produced in the presence of FIXa, FX and phospholipid)” value in experiment [1] and in experiment [2] was 18% throughout.

B2: Protected Disulfide Isoforms (isoforms of Emicizumab) (bispecific antibody, human IgG4 S228P, kappa)
heavy 1: QVQLVESGGGLVQPGGSLRLSCAASGFTFSYYDIQWVRQAPGKGLEWVSSISPSGQSTYYRREVKGRFTISRDNSKNTLYLQMNSLRAEDTAVYYCARRTGREYGGGWYFDYWGQGTLVTVSSASTKGPSVFPLAPCSRSTSESTAALGCLVKDYFPEPVTVSWNSGALTSGVHTFPAVLQSSGLYSLSSVVTVPSSSLGTQTYTCNVDHKPSNTKVDKRVESKYGPPCPPCPAPEFLGGPSVFLFPPKPKDTLMISRTPEVTCVVVDVSQEDPEVQFNWYVDGVEVHNAKTKPREEQYNSTYRVVSVLTVLHQDWLNGKEYKCKVSNKGLPSSIEKTISKAKGQPREPQVYTLPPSQKEMTKNQVSLTCLVKGFYPSDIAVEWESNGQPENNYKTTPPVLDSDGSFFLYSKLTVDKSRWQEGNVFSCSVMHEALHNRYTQKSLSLSP
heavy 2: QVQLVQSGSELKKPGASVKVSCKASGYTFTDNNMDWVRQAPGQGLEWMGDINTRSGGSIYNEEFQDRVIMTVDKSTDTAYMELSSLRSEDTATYHCARRKSYGYYLDEWGEGTLVTVSSASTKGPSVFPLAPCSRSTSESTAALGCLVKDYFPEPVTVSWNSGALTSGVHTFPAVLQSSGLYSLSSVVTVPSSSLGTQTYTCNVDHKPSNTKVDKRVESKYGPPCPPCPAPEFLGGPSVFLFPPKPKDTLMISRTPEVTCVVVDVSQEDPEVQFNWYVDGVEVHNAKTKPREEQYNSTYRVVSVLTVLHQDWLNGKEYKCKVSNKGLPSSIEKTISKAKGQPREPQVYTLPPSQEEMTKNQVSLTCLVKGFYPSDIAVEWESNGQPENNYKTTPPVLDSDGSFFLYSKLTVDKSRWQEGNVFSCSVMHEALHNHYTQESLSLSP
light: DIQMTQSPSSLSASVGDRVTITCKASRNIERQLAWYQQKPGQAPELLIYQASRKESGVPDRFSGSRYGTDFTLTISSLQPEDIATYYCQQYSDPPLTFGGGTKVEIKRTVAAPSVFIFPPSDEQLKSGTASVVCLLNNFYPREAKVQWKVDNALQSGNSQESVTEQDSKDSTYSLSSTLTLSKADYEKHKVYACEVTHQGLSSPVTKSFNRGEC
For the molecule B2, the “biological activity relative to the Emicizumab standard solution (chromogenic assay: FXa produced in the presence of FIXa, FX and phospholipid)” value in experiment [1] and in experiment [2] was 8% throughout.
